Experimental findings from paper doi:10.1101/2023.07.24.550339 (bioRxiv, 2023) are described below.

Data set [1] concerns the target Rab35BD (MiniBAR225-553), recombinant (human, UniProt O15063 225-553). The experiment in a line: ITC. Background: Isothermal titration calorimetry measures the heat released or taken up as one component is titrated into another.
The data set “SAXS” concerns the molecule itself. In words: SAXS.
Another data set has as its target Rac1Q61L, recombinant (human, UniProt P63000 1-192, Q61L). In words: ITC.
The data set “SEC-MALS” concerns the molecule itself. The experiment in a line: SEC-MALS. On the technique in general: SEC sorts molecules by how far they enter the pores of the column.

B1: Rab35-GPPNHP, recombinant (natural protein)
chain: not shown
For orientation: Kd means a measure of binding affinity in units of concentration. Consider B1, for which the Kd in data set [1] was approximately 2000 nM.

B2: Rac1BD-Rab35BD (MiniBAR70-553), recombinant (domain or fragment)
chain: not shown
Broadly, the stoichiometry N is the number of molecules, sites or subunits per partner or assembly. For the molecule B2, in “SAXS”, the “stoichiometry N” value was 2. In addition, the dissociation constant (Kd) with Rac1Q61L, recombinant is approximately 200 nM.

B3: Rac1BD (MiniBAR70-208), recombinant (domain or fragment)
chain: not shown
As for B3, the “stoichiometry N” value in “SEC-MALS” stood at 2.
